{
  "source": "patent US20140206628A1",
  "binders": {"B1": {"name": "HB80.3 ([change], [change], [change], [change], Delta54-95) (designed binder)", "chain": "MASTRGSGRPWGFSENLAFELALSFTNKDTPDRWAKVAQYVSGRTPEEVKKHYE"}},
  "conditions_in_all_cases": "remark: other sources report otherwise",
  "key": {"[1]": {"molecular_target": "A/AA/Marton/43 (H1N1)"}, "[2]": {"molecular_target": "A/Beijing/262/95 (H1N1)"}, "[3]": {"molecular_target": "A/Solomon Islands/3/06 (H1N1)"}, "[4]": {"molecular_target": "A/USSR/90/77 (H1N1)"}},
  "data": [
    {"binder": "B1", "values": [
      {"measurement": "Kd", "setting": "[1]", "result": 10, "unit": "nM"},
      {"measurement": "Kd", "setting": "[2]", "result": 10, "unit": "nM"},
      {"measurement": "Kd", "setting": "[3]", "result": 100, "unit": "nM"},
      {"measurement": "Kd", "setting": "[4]", "result": 10, "unit": "nM"}
    ]}
  ]
}
